Data published in US20070031511A1 (published 2007).
Each block holds one binder with its values, some of them ahead of it. [ ]: non-standard residue; d: D form. pGlu = O=C1CC[C@@H](C(=O)O)N1

Key:
[1] = biological target: Ggly receptor on IMGE-5 cells; assay: cell-based or functional assay
[2] = biological target: T1, human CCK-2 receptor (human, UniProt P32239 1-447); assay: cell-based or functional assay
T1 sequence (looked up): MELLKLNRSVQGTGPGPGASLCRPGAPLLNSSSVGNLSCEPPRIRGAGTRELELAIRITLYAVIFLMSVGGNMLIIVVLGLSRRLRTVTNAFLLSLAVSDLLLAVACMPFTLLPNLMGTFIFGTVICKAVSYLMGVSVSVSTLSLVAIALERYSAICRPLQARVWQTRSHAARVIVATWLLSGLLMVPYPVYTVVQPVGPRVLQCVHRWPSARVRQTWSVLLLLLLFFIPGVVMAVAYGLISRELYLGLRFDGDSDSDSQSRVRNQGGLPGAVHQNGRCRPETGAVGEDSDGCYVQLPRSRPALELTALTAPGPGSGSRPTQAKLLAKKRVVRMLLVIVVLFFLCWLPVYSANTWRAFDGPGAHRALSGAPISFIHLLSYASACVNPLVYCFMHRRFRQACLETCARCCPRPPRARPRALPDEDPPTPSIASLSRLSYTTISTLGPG

[3] = biological target: T1, human CCK-2 receptor; assay: fitted [125I]-BH-CCK8 binding without competitor, displacement curve, Jurkat cells
Procedure: (§1) Non-specific binding was evaluated with […] of unlabelled CCK₈. Incubation was stopped by adding 2 ml of ice-cold PBS containing 2% bovine serum albumin. After centrifugation, supernatants were removed and the radioactivity bound to the cell membranes was measured in a γ-counter (LKB, Wallac, Finland).
(§2) Values of the % maximum binding in the absence of competitor and of the IC₅₀ were obtained from the data presented in FIG. 21 by least squares fitting with the program Sigmaplot. Values from the indicated number of independent experiments were combined to obtain the mean values (±S.E.) presented above. Data were analyzed by one-way analysis of variance.

[4] = biological target: T1, human CCK-2 receptor; assay: fitted [125I]-BH-CCK8 binding without competitor, displacement curve, CCK-2 receptor on transfected COS-7 cells
Procedure: as §2

[5] = biological target: T1, human CCK-2 receptor; assay: displacement of [125I]-BH-CCK8, Jurkat cells; reference Gamide
[6] = biological target: T1, human CCK-2 receptor; assay: displacement of [125I]-BH-CCK8, CCK-2 receptor on Jurkat cells
Procedure: as §1, §2

[7] = biological target: T1, human CCK-2 receptor; assay: displacement of [125I]-BH-CCK8, transfected COS-7 cells; reference Gamide
[8] = biological target: T1, human CCK-2 receptor; assay: single experiment of FIG. 21, displacement of [125I]-BH-CCK8, transfected COS-7 cells
From the text: The lines of best fit shown in FIG. 21 were obtained by nonlinear regression to a single site model with the program Sigmaplot.

[9] = biological target: T1, human CCK-2 receptor; assay: displacement of [125I]-BH-CCK8, CCK-2 receptor on transiently transfected COS-7 cells
Procedure: as §2

B3: nonapeptide LE5AYG (peptide)
peptide: LEEEEEAYG
- ED50 (nM), proliferation of IMGE cells, thymidine uptake [1]: 1 nM

B4: heptapeptide LE5A (peptide)
peptide: LEEEEEA
- ED50 (nM), proliferation of IMGE cells, thymidine uptake [1]: 2.4 nM

B5: amidated gastrin17 (Gamide) (peptide)
peptide: XGPWLEEEEEAYGWMDF
modifications: N-terminal pyroglutamate (Z); C-terminal phenylalanine amide
notes: Synthetic peptide bought from Bachem; Also tested with 1 uM DFO or with 8 moles Bi3+ per mole; also called G17
- inositol phosphate turnover [2]: 4 fold
- % Maximum Binding [3]: 100%
- % Maximum Binding [4]: 94.2%

B8: GamideE8,9A (peptide)
peptide: [pGlu]GPWLEEAAEAYGWMDF-NH2
modifications: ends and bridges not checked
notes: Gamide mutant with Glu8 and Glu9 replaced by Ala; Synthesised by Auspep
- ratio IC50 GamideE8,9A/IC50 Gamide [5]: 2.2
- IC50 [6]: 2.8 nM
- ratio IC50 GamideE8,9A/IC50 Gamide [7]: 4.1
- IC50 [8]: 58.2 nM
- % Maximum Binding [3]: 97.8%
- IC50 [9]: 112 nM
- % Maximum Binding [4]: 98.4%

Next, values leading:

- ED50 (nM), proliferation of IMGE cells, thymidine uptake [1]: 0.9 nM
B1: hexapeptide LE5 (peptide)
peptide: LEEEEE

- ED50 (nM), proliferation of IMGE cells, thymidine uptake [1]: 1.1 nM
B2: heptapeptide E5AY (peptide)
peptide: EEEEEAY

- ratio IC50 GamideE7A/IC50 Gamide [5]: 2.4
- IC50 [6]: 3.1 nM
- ratio IC50 GamideE7A/IC50 Gamide [7]: 1.4
- IC50 [8]: 25.1 nM
- % Maximum Binding [3]: 96.7%
- IC50 [9]: 37 nM
- % Maximum Binding [4]: 92%
B6: GamideE7A (peptide)
peptide: [pGlu]GPWLEAEEEAYGWMDF-NH2
modifications: ends and bridges not checked
notes: Gamide mutant with Glu7 replaced by Ala; Synthesised by Auspep

- ED50 (nM), proliferation of IMGE cells, thymidine uptake [1]: 0.5 nM
B7: hexapeptide E5A (peptide)
peptide: EEEEEA
